Data on 5 proteins can be found in PMC4231051.

Substrate in the series: O=[N+]([O-])c1ccc(O[C@@H]2O[C@H](CO)[C@@H](O)[C@H](O)[C@H]2O)cc1
As to the kind of experiment: purified protein. The following applies: 50 mM citrate phosphate buffer, pH 7.0, 37 °C, 5.5 min, 0.02-3 mM pNPG.

Residue numbers refer to the chain shown, from its start. Names may count otherwise.

B1: BglA (β-glucosidase A) (Paenibacillus polymyxa; T231K) (protein)
chain: TIFQFPQDFMWGTATAAYQIEGAYQEDGRGLSIWDTFAHTPGKVFNGDNGNVACDSYHRYEEDIRLMKELGIRTYRFSVSWPRIFPNGDGEVNQEGLDYYHRVVDLLNDNGIEPFCTLYHWDLPQALQDAGGWGNRRTIQAFVQFAETMFREFHGKIQHWLTFNEPWCIAFLSNMLGVHAPGLTNLQTAIDVGHHLLVAHGLSVRRFRELGTSGQIGIAPNVSWAVPYSKSEEDKAACARTISLHSDWFLQPIYQGSYPQFLVDWFAEQGATVPIQDGDMDIIGEPIDMIGINYYSMSVNRFNPEAGFLQSEEINMGLPVTDIGWPVESRGLYEVLHYLQKYGNIDIYITENGACINDEVVNGKVQDDRRISYMQQHLVQVHRTIHDGLHVKGYMAWSLLDNFEWAEGYNMRFGMIHVDFRTQVRTPKESYYWYRNVVSNNWLETRR
As to B1, the Michaelis-Menten constant (Km) (in general, the substrate concentration at which the rate is half of its maximum) was found to be 610 ± 70 µM; the kcat (in general, the maximal rate divided by the concentration of active sites) amounted to 36.3 s⁻¹; the kcat/Km (in general, the turnover number divided by the Michaelis constant) amounted to 59300 M⁻¹ s⁻¹.

B2: BglA (β-glucosidase A) (Paenibacillus polymyxa; E96R) (protein)
chain: B1 chain with E95R, K230T
As to B2, the Km was 470 ± 20 µM, the kcat was found to be 21.2 s⁻¹ and the specificity constant (kcat/Km) was determined as 44800 M⁻¹ s⁻¹.

B3: BglA (β-glucosidase A) (Paenibacillus polymyxa) (protein)
chain: B1 chain with K230T
On to B3, for which the Km was determined as 1210 ± 30 µM, the kcat came out at 44.7 s⁻¹ and the kcat/Km is 36900 M⁻¹ s⁻¹.

B4: BglA (β-glucosidase A) (Paenibacillus polymyxa; Q216R) (protein)
chain: B1 chain with Q215R, K230T
Regarding B4, the Km is 460 ± 0 µM, the kcat was 26 s⁻¹ and the kcat/Km was determined as 56900 M⁻¹ s⁻¹.

B5: BglA (β-glucosidase A) (Paenibacillus polymyxa; E96K) (protein)
chain: B1 chain with E95K, K230T
On to B5, for which the Michaelis-Menten constant (Km) stood at 190 ± 10 µM, the kcat was 28.4 s⁻¹ and the kcat/Km amounted to 149000 M⁻¹ s⁻¹.
